According to patent US20030007981A1 (UNIVERSITY OF SASKATCHEWAN, published 2003):

B1: H. somnus transferrin-binding protein 1 (native, from strain HS25) (receptor)
chain: DTESPSSNTEAVLELEAIQVQAKHEISRHDNEVTGLGKVVKSSEDIDKELILNIRDLTRYDPGISVVEQGRGATSGYAMRGVDRNRVAMLVDGLGQAQSYSTLKSDANGGAINEIEYENIKSIELSKGSSSAEYGSGALGGAVGFRTKEADDVIKEGQNWGLNSKTAYSSKNSQFTQSVAGAFRVGGFDSLAIFTHRKGKETRVHPAAEEIQHTYQPLEGYFNRYEVDQNRNGKPVLANAYYILADECSNLSDPSCRHAKAKTNRVGAPENNPNWTPEEQAQAAKMPYPTRTASAKDYTGPDRISPNPMDYQSHSFFWKGGYRLSPNHYVGGVLEHTKQRYDIRDMTQRAYYTKEDICHSGSSCQTLDKNETDKGNFGITLTDNPLDGLVYDAGNQARGVRYGRGKFFNERHTKNRSGIFYRYENPDKNSWPDSLTLSIDRQDLKLSSRIHWTYCTDYPHVARCRASLDKPWSNYRTEKNDYQERLNLGQFNWEKTFNLGFTTHKVNIAAGFGTHRSTLQHGDLYAEYVTLPPYTEEKVYGEDNKVKQNPTAEEKEKLQYGNGSYDKPRVYRRKNTPELKTVNGCNETAGDNRDCSPRVITGRQYYLALRNHIAFGEWADLGLGVRYDNHTFRSNDPWTKGGNYHNWSWNAGVSLKPTRHFVVSYRVSSGFRVPAFYELYGVRTGASGKDNPLTQKEFLSRKPLKSEKAFNQEIGLAVQGDFGVIETSFFQNNYKNLLARADKYVEGLGYVTDFYNTQDVKLNGINILGRIYWEGISDRLPEGLYSTLAYNRINIKARKLHDNFTNVSEPTLEAVQPGRIIASIGYDDPEGRWGLNLSGTYSQAKQRDEVVGEKVFGKGGSIKRTINSKRTRAWYIYDLTAYYTWKEKFTLRAGIYNLTNRKYSTWESVRQSAANAVNQDLGTRSARFAARGRNFTVSMEMKF
notes: also called Tbp1; native H. somnus Tbp1
B2: H. somnus transferrin-binding protein 2 (native, from strain HS25) (receptor)
chain: CSSGKGGFDLDDVEHTPPSSSGSSRPTYQDVPTGQRQQEIVEEINSPALGYATEIPRRNISPMPTTGTKESNARVAITAQQVAPLSMPFNSIKEDFIKRLIAENTKKNARGRDVKYFDDTDDVLFAHDGSNLAHKRDLQYVRVGYVLGTRKIELVFSHDKKTRDQFPAGWVGYVFYQGTSPAVTLPTQTVTYKGYWDFVSDAFNERTLAEDFTQENSSATSNIPGNQIGATSMDALVNRKVSGEKINIAHSAEFTADFGSKKLSGELKSNGYVSRIENEQQDVKTRYKIDADIKGNRFVGSATAQEKSHTIFGKDADKRLEGGFFGPKAEELAGKFLTDDNSLFVVFGAKRESKGDEKLETRFDAVKISTDSNKLEKETMDTFGNAAYLVLDGRQFPLVPESNAGTTGAGNTGKNEFISTIDGSHLNKTNHENHKKYKVTVCCSNLVYVKFGSYGEQTTANDASNSTAGAATTHNSTLTNGHLFLTGERTSLTDMAKQSGAAKYIGTWQANFLSSKGQVGSVDAGDPRNDSGKSRAEFDVNFGGKTVTGKFFDADGIQPALTMDSTKIEGNGFSGTAKTTGSLQLDKGSTGAGITVTFTDAKVDGAFYGPNAEEIGGTITSNGTGDKVGGVFGAKRQELSQQK
modifications: lipid modification (lipoprotein; residue not stated)
notes: The signal peptide (residues 1-19) is stated; also called Tbp2; protein with relative molecular weight of 80,000

Molecular target: biotinylated bovine transferrin (bovine, UniProt Q29443 20-704, biotinylated (sites not given))
Assay: affinity chromatography: H. somnus total membranes mixed with biotinylated bovine transferrin, captured on streptavidin-agarose

biotinylated bovine transferrin, sequence (Q29443 20-704 limits assumed): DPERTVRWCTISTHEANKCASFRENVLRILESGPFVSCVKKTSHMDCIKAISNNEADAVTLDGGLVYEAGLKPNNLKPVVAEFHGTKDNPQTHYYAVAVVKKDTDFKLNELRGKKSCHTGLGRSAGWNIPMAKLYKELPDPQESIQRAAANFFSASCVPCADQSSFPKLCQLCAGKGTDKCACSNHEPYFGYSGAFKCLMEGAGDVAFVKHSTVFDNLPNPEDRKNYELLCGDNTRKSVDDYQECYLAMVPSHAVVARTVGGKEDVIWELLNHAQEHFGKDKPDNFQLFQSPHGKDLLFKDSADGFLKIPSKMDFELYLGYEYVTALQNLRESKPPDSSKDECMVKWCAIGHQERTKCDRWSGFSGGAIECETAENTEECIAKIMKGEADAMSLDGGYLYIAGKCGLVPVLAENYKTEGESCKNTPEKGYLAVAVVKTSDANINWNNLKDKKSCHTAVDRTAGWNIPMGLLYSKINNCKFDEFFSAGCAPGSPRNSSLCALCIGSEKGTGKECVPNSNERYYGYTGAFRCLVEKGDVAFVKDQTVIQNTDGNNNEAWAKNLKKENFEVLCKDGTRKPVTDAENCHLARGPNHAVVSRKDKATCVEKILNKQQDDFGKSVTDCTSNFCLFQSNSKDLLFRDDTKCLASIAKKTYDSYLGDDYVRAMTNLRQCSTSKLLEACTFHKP

| Binder | binding result |
| --- | --- |
| B1 | binds |
| B2 | binds |
